# Literature values, collected in publication PMC6205161.
# Target: apo-GLRX5 (Homo sapiens) (UniProt Q86SX6)
# Assay: thermophoresis
# UniProt Q86SX6, sequence (Q86SX6 32-157): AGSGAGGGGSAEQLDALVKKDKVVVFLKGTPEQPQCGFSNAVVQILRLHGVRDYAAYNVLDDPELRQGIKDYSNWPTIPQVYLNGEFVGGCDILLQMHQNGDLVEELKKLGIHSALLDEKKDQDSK
row,Kd [nM],Substance
1,3000,BOLA1 (from UniProt Q9Y3E2)
2,3000,BOLA3 (from UniProt Q53S33)
